The text below walks through data of patent US20210071247.

The subject of series [1] is AMV reverse transcriptase (Avian myeloblastosis virus). As to conditions: LNA at GATA and GAAC of 3' 12-mer GATAgcttGAAC of SEQ 2 (mC LNA), PS linkages in the 12-mer; iSp18 spacer and 3' amino in DCP1; read-through efficiency, 42 C; lost above 52.5 C.
In series [2] the target is PrimeScript reverse transcriptase (UniProt P03355). As to conditions: LNA at GATA and GAAC of 3' 12-mer GATAgcttGAAC of SEQ 2 (mC LNA), PS linkages in the 12-mer; iSp18 spacer and 3' amino in DCP1; read-through efficiency, 42 C.
Series [3] addresses Volcano2G DNA polymerase (UniProt P19821). The conditions noted are these: LNA at GATA and GAAC of 3' 12-mer GATAgcttGAAC of SEQ 2 (mC LNA), PS linkages in the 12-mer; iSp18 spacer and 3' amino in DCP1; first strand read-through efficiency vs DTT1, ddPCR, 42 C.

Chain of Volcano2G DNA polymerase (P19821 whole entry): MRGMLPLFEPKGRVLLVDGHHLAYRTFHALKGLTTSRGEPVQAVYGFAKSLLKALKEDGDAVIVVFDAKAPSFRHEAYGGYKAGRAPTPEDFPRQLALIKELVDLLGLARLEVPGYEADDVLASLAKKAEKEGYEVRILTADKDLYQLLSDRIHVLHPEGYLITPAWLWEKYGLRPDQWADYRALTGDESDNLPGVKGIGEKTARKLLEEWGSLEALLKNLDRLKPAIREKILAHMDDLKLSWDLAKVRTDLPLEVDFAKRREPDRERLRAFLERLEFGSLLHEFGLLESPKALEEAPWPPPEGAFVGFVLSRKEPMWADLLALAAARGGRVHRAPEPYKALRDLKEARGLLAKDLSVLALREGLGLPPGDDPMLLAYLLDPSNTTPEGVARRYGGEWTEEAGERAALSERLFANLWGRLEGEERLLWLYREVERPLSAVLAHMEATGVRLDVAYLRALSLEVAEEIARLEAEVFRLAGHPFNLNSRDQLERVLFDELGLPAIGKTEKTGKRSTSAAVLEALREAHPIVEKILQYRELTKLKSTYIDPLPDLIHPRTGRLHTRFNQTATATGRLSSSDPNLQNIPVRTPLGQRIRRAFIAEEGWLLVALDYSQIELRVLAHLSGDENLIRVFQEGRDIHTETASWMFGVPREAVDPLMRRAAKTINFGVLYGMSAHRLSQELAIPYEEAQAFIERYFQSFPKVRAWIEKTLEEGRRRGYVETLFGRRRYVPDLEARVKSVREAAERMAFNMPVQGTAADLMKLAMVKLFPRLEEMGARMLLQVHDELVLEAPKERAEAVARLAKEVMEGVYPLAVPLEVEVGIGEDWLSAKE

With “GCGTAACTAGACCATAAGCCGATAGCTTGAACCGGACCAGCAAGCTTAGAGATCACGGTATCCAGATTCGCTCATAGTACACAACTGCCTCCGGTTCAA / GCAGTTGTGTACTATGAGCGA [LTT1 template with DCP1_primer1]”, the activity in series [1] was determined as 0.1%; in series [2], 0.1%; in series [3], 10%.
